US20150158910A1 (Bristol-Myers Squibb, published 2015)

T1: human PAR4 (protease activated receptor 4) (human, UniProt Q96RI0 48-385)
T1 sequence (looked up): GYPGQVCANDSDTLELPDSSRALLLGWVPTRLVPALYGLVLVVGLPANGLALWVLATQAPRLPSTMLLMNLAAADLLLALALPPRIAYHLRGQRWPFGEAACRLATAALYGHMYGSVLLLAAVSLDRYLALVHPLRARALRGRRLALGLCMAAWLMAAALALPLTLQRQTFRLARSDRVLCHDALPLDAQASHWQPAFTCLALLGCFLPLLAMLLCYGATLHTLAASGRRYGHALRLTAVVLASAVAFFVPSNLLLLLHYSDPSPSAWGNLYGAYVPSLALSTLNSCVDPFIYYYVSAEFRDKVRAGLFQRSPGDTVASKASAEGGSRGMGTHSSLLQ

T2: PAR1 (protease activated receptor 1), endogenous in HEK293 cells (UniProt P25116 42-425, limits assumed)
T2 sequence (looked up): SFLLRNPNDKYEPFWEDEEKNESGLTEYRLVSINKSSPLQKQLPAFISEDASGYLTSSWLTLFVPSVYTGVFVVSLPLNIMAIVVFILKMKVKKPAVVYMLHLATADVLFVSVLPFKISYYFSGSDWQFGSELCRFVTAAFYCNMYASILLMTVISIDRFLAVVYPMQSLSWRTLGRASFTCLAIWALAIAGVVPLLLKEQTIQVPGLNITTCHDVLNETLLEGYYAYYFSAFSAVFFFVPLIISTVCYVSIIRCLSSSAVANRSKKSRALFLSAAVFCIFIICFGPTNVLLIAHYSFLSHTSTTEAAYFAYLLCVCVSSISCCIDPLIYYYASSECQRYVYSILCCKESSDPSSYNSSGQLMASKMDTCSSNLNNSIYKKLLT


What was measured:
[1] = biological target: T1, human PAR4 (protease activated receptor …); experiment: cell-based or functional assay
[2] = biological target: T2, PAR1 (protease activated receptor 1), …; experiment: cell-based or functional assay

| Binder | EC50 (µM) FLIPR Assay [1] [µM] | EC50, calcium mobilization (FLIPR/FDSS) in HEK293 PAR4 cells, PAR1 counter screen [2] [µM] |
| --- | --- | --- |
| AYPG [Peptide SEQ ID NO: 10] | 600 | – |
| AYPGWLVKNG (free N-terminus; C-terminal amide) [PAR4 agonist peptide SEQ ID NO: 2] | 4.8 | – |
| SFFLRR [SFFLRR (SEQ ID NO: 35)] | – | 0.6 |
| AYPGQVCAND [Peptide SEQ ID NO: 11] | 159 | – |
